Like-named read-outs stand apart in the source and are kept apart here.
Experiments:
[1] = rat, in vivo, sc
Protocol: CBS activity was determined by a radioisotope assay with C^14-labeled serine as a substrate. Ten μl (total 490 ng) of pure htCBS in dilution buffer (0.1 M Tris-HCl pH=8.6, 1 mM DTT, 10 μM PLP, 0.5 mg/ml BSA) or 10 μl of plasma were added to 85 μl of reaction mixture containing 0.1 M Tris-HCl pH=8.6, 10 mM L-serine, 0.5 mM PLP, 0.5 mg/ml BSA and 0.3 μCi (for pure enzyme) or 0.45 μCi (for plasma) of L-[C^14(U)]-Serine. Samples were incubated for 5 min at 37° C. and reaction was initiated by addition of 5 μl of 0.2 M Hcy (10 mM final concentration). Following 30 min of incubation at 37° C., a 20 μl aliquot of the assay mixture was applied onto a grade 3 CHR Whatman (NJ, USA) paper. Assay initiation and sampling of the resulting mixture were staggered so that each reaction time was 30 minutes. Descending paper chromatography was used to isolate the radioactive product (Cth) from a labeled substrate (Ser). The C^14-cystathionine formed in the reaction was separated from C^14-serine by an overnight descending paper chromatography in 2-propanol/formic acid/H2O (75:5.7:18.9 v/v). Radioactivity in the area of the marker cystathionine (detected by staining the marker lane with ninhydrin) was determined by cutting the chromatogram into strips that were submerged in 5 ml of Opti-fluor scintillation cocktail (PerkinElmer, MA, USA) and counted in a Beckman LS-3801 scintillation counter. An enzyme-free sample was used as a blank to monitor the background radioactivity that was then subtracted from each sample. For pure enzyme, specific activity values are expressed as enzyme units (the amount of enzyme that produces 1 μmol of cystathionine/hour) per mg of CBS, and for plasma samples as units per μl plasma.
The pharmacokinetic (PK) parameters were calculated using a non-compartmental curve stripping model which resolves a curve into a series of exponential terms corresponding to the absorption, distribution and elimination phases occurring during the time course of the enzyme in the blood. The curve stripping approach assumes that the disposition phases of the drug follow apparent first-order kinetics, which is evidenced by the linearity in the terminal portion of a semi-log plot. These calculations were made using a modeling program called PK Solutions 2.0 (Summit Solutions, Montrose, CO) using the mean plasma enzyme activity for each route of administration. The bioavailability was calculated by dividing the area under the curve (AUC) for the SC or IP route by the AUC observed after IV administration.
In order to assess the pharmacokinetics of 20NHS PEG-htCBS C15S in rats, wild-type Sprague Dawley rats were injected with a single dose of 20NHS PEG-htCBS C15S through intra-vascular (IV) or sub-cutaneous (SC) routes. The design of a third (repeated dose) PK study (groups 7-9) was adjusted to allow extraction of data after the first dose and thus their combination with a single dose PK study (groups 1-6).
To further evaluate rats as a species for conducting long-term toxicity studies, the pharmacokinetics of 20NHS PEG-htCBS C15S was determined in three groups of Sprague Dawley rats receiving a total of 9 SC injections every 48 hours of either 4 mg/kg (low), 8 mg/kg (mid), or 24 mg/kg (high) 20NHS PEG-htCBS C15S. […] The experiment was conducted for a length of 24 days.

Hcy, Cth, Cys = test: Plasma metabolites in surviving treated KO mice (trough and peak); type: in vivo; conditions: 7.5 mg/kg 3x weekly
Protocol: (§1) Plasma metabolites homocysteine, cystathionine and cysteine were determined by stable-isotope-dilution liquid chromatography mass spectrometry as previously described in (Allen et al., 1993, Metabolism, 42: 1448-1460). Measurements of total non-protein bound homocysteine and other aminothiols as well as of amino acids in tissue were performed as described in (Maclean et al., 2010b. Mol. Genet. Metab. 101, 153-162). Metabolites were determined by stable-isotope-dilution liquid chromatography mass spectrometry.
Metabolite levels in surviving KO mice at age of about 4-5 weeks were measured after a weekend washout (trough) and 24 hours after the last injection (peak) using the experimental procedure in Example 1.

[2] = for Peak @ SS, predicted / Trough @ SS, predicted: 80% bioavailability assumed; for Extrapolated concentration: hypothetical single dose curve
Protocol: Using a dose of 5 mg/kg and correcting for the difference in body surface area between humans (70 kg) and mice (0.025 kg), a dose of 0.4 mg/kg was estimated to be the efficacious human equivalent dose (HED). […] Since the substrate for 20NHS PEG-htCBS C15S activity (Hcy and serine) was the same across species and the site of action was the blood pool itself, these parameters provide an accurate estimate of the target human plasma levels required for efficacy in a 20NHS PEG-htCBS clinical trial.
Interspecies comparisons were conducted based upon body surface area scaling assuming an 80% bioavialability in all 3 species (mouse, rat and monkey) to determine if a linear correlation existed between the log body weight and the log of various PK parameters (AUC/dose, Cmax per dose and T1/2). […] Linear correlations allow predictions of the clinical dose and dosing regimen from the preclinical data to be made.
By extrapolating to the log body weight for humans (70 kg) for each parameter, the AUC/dose, Cmax/dose, and T1/2 was calculated for human subjects.
The human predicted efficacious dose was calculated from the efficacious dose in mice (5 mg/kg) by allometric scaling to be 0.4 mg/kg in a 70 kg human.

KO mice = test: Liver light and electron microscopy of treated KO mice; type: in vivo, mouse; conditions: 7.5 mg/kg SC 3x/week from 2 days of age, day 17-19
Protocol: The PBS-injected or PEGylated htCBS conjugate, such as 20NHS PEG-htCBS C15S, treated KO mice were sacrificed on day 17-19 and liver samples were processed for histological analysis by optical microscopy. The histological assessment was carried out in a blinded fashion. Livers were removed and were fixed for 24 hours with 4% paraformaldehyde in PBS (pH 7.4). Tissue blocks for histology were trimmed, dehydrated with an ethanol series followed by acetone, acetone-xylene mixture, and xylene, then embedded in paraffin. In parallel, small tissue blocks (around 4 mm×2 mm) fixed with paraformaldehyde were rapidly frozen in petrol ether cooled with dry ice, and stored at −50° C. for detection of apolar lipids. Paraffin sections 4 μm thick were deparaffinized in xylene and after isopropyl alcohol step rehydrated with ethanol (96%, 70%, 60%). Tissue sections were stained with hematoxylin and eosin (H&E) to evaluate histopathological changes. Masson trichrome staining was performed for detection of fibrosis. Steatosis was verified using Oil Red O staining for detection of apolar lipids in fixed-frozen sections that was 10 μm thick and cut with a Leica Cryomicrotome (CM 1850). The sections were viewed and photographed with a Nikon light microscope (E800) equipped with Olympus digital camera (DP70). […]

[3] = system: homocysteine, cystathionine, cysteine, lanthionine, and homolanthionine; test: Pharmacodynamics (plasma sulfur amino acid metabolites) in monkeys; type: in vivo, cynomolgus monkeys (Macaca fascicularis); set-up: Cystathionine plasma level / Lanthionine plasma level / Homolanthionine plasma level: unit not given here; conditions: for Homolanthionine plasma level / Lanthionine plasma level / Cystathionine plasma level: mean ± SEM
Protocol: as §1

[4] = body surface area scaling, 70 kg human
[5] = human, 0.33 mg/kg SC 1x/week (168 h)
[6] = human, 0.33 mg/kg SC 2x/week (84 h)
[7] = human, 0.66 mg/kg SC 1x/week (168 h)
[8] = human, 0.66 mg/kg SC 2x/week (84 h)
[9] = human, 1 mg/kg SC 1x/wk (168 h)

Substance: 20NHS PEG-htCBS C15S: htCBS C15S PEGylated with ME-200GS PEG (20 kDa linear NHS ester-activated PEG)
- elimination half-life (T1/2) [1]: 44.5 h
- plasma Cys (Hcy, Cth, Cys; 24 hours post-dose): 176 ± 6 µM
- plasma Hcy (Hcy, Cth, Cys; 24 hours post-dose): 96 ± 8 µM
- plasma Cys (Hcy, Cth, Cys; 72 hours post-dose): 106 ± 6 µM
- plasma Hcy (Hcy, Cth, Cys; 72 hours post-dose): 179 ± 10 µM
- Initial Cmax, predicted ([2]; 0.33 mg/kg): 11.3 mU/μL
- Initial Cmax, predicted ([2]; 0.66 mg/kg): 22.6 mU/μL
- Initial Cmax, predicted ([2]; 1 mg/kg): 34 mU/μL
- AUC/dose, human predicted value [2, 4]: 7474 (mU-h/mL)/(mg/kg)
- Cmax/dose, human predicted value [2, 4]: 34 (mU/μL)/(mg/kg)
- E intercept of hypothetical single dose PK curve ([2]; human): 43.079
- Peak @ SS, predicted [2, 5]: 22.6 mU/μL
- Trough @ SS, predicted [2, 5]: 15.4 mU/μL
- Peak @ SS, predicted [2, 6]: 41 mU/μL
- Trough @ SS, predicted [2, 6]: 34.5 mU/μL
- Peak @ SS, predicted [2, 7]: 45.2 mU/μL
- Trough @ SS, predicted [2, 7]: 30.8 mU/μL
- Peak @ SS, predicted [2, 8]: 82 mU/μL
- Trough @ SS, predicted [2, 8]: 69 mU/μL
- C1min, predicted [2, 9]: 22.3
- Peak @ SS, predicted [2, 9]: 67.9 mU/μL
- Trough @ SS, predicted [2, 9]: 46.2 mU/μL
- C1min, predicted ([2]; human, 1 mg/kg SC 2x/wk (84 h)): 29.0
- Peak @ SS, predicted ([2]; human, 1 mg/kg SC 2x/wk (84 h)): 123 mU/μL
- Trough @ SS, predicted ([2]; human, 1 mg/kg SC 2x/wk (84 h)): 109 mU/μL
- Extrapolated concentration ([2]; human, 0 hours): 0
- Extrapolated concentration ([2]; human, 1 hours): 0.9
- Extrapolated concentration ([2]; human, 2 hours): 2
- Extrapolated concentration ([2]; human, 4 hours): 4.3
- Extrapolated concentration ([2]; human, 8 hours): 8
- Extrapolated concentration ([2]; human, 20 hours): 20
- Extrapolated concentration ([2]; human, 48 hours): 33.3
- Extrapolated concentration ([2]; human, 72 hours): 34
- Extrapolated concentration ([2]; human, 96 hours): 28
- Extrapolated concentration ([2]; human, 240 hours): 16.7
- Extrapolated concentration ([2]; human, 336 hours): 12
- Extrapolated concentration ([2]; human, 408 hours): 8.5
- liver parenchyma, light microscopy (KO mice): regular liver architecture and minimal anizokaryosis
- Homolanthionine plasma level ([3]; 1 mg/kg SC every 72 h, 176 h): 64 ± 7
- Lanthionine plasma level ([3]; 1 mg/kg SC every 72 h, 176 h): 46 ± 9
- Cystathionine plasma level ([3]; 1 mg/kg SC every 72 h, 176 h after first injection): 4010 ± 236
- Cystathionine plasma level ([3]; 1 mg/kg SC every 72 h, 392 h): 4272 ± 333
- Homolanthionine plasma level ([3]; 1 mg/kg SC every 72 h, 392 h): 72 ± 5
- Lanthionine plasma level ([3]; 1 mg/kg SC every 72 h, 392 h): 69 ± 7
- Cystathionine plasma level ([3]; 3 mg/kg SC every 72 h, 176 h): 5629 ± 284
- Homolanthionine plasma level ([3]; 3 mg/kg SC every 72 h, 176 h): 64 ± 4
- Lanthionine plasma level ([3]; 3 mg/kg SC every 72 h, 176 h): 103 ± 7
- Cystathionine plasma level ([3]; 3 mg/kg SC every 72 h, 392 h): 5893 ± 390
- Homolanthionine plasma level ([3]; 3 mg/kg SC every 72 h, 392 h): 60 ± 10
- Lanthionine plasma level ([3]; 3 mg/kg SC every 72 h, 392 h): 109 ± 9
- Cystathionine plasma level ([3]; 10 mg/kg SC every 72 h, 176 h): 7098 ± 12
- Homolanthionine plasma level ([3]; 10 mg/kg SC every 72 h, 176 h): 50 ± 3
- Lanthionine plasma level ([3]; 10 mg/kg SC every 72 h, 176 h): 281 ± 43
- Cystathionine plasma level ([3]; 10 mg/kg SC every 72 h, 392 h): 9318 ± 288
- Homolanthionine plasma level ([3]; 10 mg/kg SC every 72 h, 392 h): 53 ± 4
- Lanthionine plasma level ([3]; 10 mg/kg SC every 72 h, 392 h): 353 ± 38
- plasma Cth ([3]; 8 hours after IV, 8 and 48 hours after SC administration): significant spikes
- plasma levels of Hcy and Cys ([3]; single IV or SC dose, healthy wild-type monkeys): No significant changes

From US12194082B2, “Compositions and methods for treatment of homocystinuria” (THE REGENTS OF THE UNIVERSITY OF COLORADO, priority 2016, dated 2025)
